Laboratory results published in PMC11984735, “Dynamics of the adhesion complex of the human pathogens Mycoplasma pneumoniae and Mycoplasma genitalium” (PLOS Pathogens, 2025).

Biological target: T1, P1 adhesin ectodomain (residues Thr29-Asp1521), Mycoplasma pneumoniae (M. pneumoniae, UniProt P11311)
T1 construct: Adhesin P1 of Mycoplasma pneumoniae, gene MPN_141 (synthetic clone, Genscript), residues 29-1521; also called P1 (29-1521); whole P1 ectodomain; source: E. coli B834 (DE3), purified (HisTrap, Superdex 200)
T1 sequence (P11311 29-1521): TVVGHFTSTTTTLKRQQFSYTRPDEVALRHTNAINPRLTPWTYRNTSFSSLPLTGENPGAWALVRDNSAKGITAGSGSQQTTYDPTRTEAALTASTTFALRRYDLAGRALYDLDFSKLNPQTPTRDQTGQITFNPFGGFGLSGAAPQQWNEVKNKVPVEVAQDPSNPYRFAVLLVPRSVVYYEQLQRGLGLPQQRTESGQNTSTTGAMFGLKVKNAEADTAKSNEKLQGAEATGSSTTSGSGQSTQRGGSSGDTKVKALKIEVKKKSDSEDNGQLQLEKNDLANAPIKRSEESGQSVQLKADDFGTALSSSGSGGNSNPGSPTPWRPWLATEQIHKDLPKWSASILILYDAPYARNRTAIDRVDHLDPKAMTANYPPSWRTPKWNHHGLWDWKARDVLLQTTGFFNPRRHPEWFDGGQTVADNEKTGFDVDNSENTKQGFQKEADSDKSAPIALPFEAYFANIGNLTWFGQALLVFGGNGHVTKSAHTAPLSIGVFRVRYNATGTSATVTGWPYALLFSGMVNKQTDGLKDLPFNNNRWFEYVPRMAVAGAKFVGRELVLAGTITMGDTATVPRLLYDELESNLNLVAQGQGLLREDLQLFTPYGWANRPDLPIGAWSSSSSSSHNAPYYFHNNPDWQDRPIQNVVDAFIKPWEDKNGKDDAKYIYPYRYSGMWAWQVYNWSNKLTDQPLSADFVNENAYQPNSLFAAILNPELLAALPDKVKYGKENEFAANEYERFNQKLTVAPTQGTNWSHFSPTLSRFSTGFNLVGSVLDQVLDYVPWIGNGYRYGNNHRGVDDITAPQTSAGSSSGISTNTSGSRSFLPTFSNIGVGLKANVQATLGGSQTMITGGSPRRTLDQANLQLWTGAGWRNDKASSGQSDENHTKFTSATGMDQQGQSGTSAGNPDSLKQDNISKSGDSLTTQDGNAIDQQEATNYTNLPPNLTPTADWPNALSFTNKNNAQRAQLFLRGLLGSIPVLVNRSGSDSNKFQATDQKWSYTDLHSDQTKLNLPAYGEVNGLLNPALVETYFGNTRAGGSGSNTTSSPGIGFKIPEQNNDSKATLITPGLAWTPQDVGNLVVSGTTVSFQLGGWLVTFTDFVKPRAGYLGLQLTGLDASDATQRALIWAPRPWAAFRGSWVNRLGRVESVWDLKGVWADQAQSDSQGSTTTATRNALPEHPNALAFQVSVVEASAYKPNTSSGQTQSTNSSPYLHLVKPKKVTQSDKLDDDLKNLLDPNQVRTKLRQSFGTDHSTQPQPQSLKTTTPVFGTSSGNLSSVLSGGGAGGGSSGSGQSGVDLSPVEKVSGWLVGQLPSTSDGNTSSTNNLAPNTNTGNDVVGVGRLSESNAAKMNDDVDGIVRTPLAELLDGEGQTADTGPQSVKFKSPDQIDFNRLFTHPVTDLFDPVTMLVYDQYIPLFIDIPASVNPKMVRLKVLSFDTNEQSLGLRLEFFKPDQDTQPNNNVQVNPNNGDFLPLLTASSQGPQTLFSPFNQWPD
Assay: SEC-MALS; proteins mixed in solution (Fab and P1 ectodomain in equimolecular amounts; Mab with C-domain constructs); Superdex 200 10/300 GL with MALS and refractive index detectors
Details: both partners purified

Row | Binder | binding result
1 | Fab fragment of monoclonal antibody P1/MCA4, with light chain L1 (Fab, V domains shown, LC600310 by the order of listing; here the papain fragment of the heavy chain; modelled in PDB 8ROR; light chain L1, the one seen in the cryo-EM map; The Fab preparation is a mixture of two Fabs with one heavy chain and two different light chains (roughly 70% for the most abundant); this molecule is the one with L1; also called Fab(P1/MCA4); P1/MCA4 Fab; source: papain digestion of monoclonal …) VH: EVQLQQSGPELVKPGTSMKISCKASGYSFTGYTMNWVKQSHGKSLEWIGLINPYNGGTNYNQKFRGTATLTVDKSSSTAYMELLSLTSEDSAVYYCARSNYAYDLLMDYWGQGTSVTVSS VL: DVLMTQTPLSLPVSLGDQASISCRFSQTIVHSNGATYLEWYLQRPGQSPKLLIYKVSNRFSGVPDRFSGSGSGTDFTLKISRVEAEDLGVYYCFQGSHVPWTFGGGTKLEIK | binds
2 | Fab fragment of monoclonal antibody P1/MCA4, with the second light chain (not L1) (Fab, V domains shown, LC600310 by the order of listing; papain fragment; the second of the two light chains found in P1/MCA4 (not L1); Present in the same Fab preparation as m1; also called Fab(P1/MCA4); P1/MCA4 Fab; source: papain digestion of monoclonal antibody P1/MCA4 (hybridoma), purified (HiTrap Protein G, Superdex 75)) VH: EVQLQQSGPELVKPGTSMKISCKASGYSFTGYTMNWVKQSHGKSLEWIGLINPYNGGTNYNQKFRGTATLTVDKSSSTAYMELLSLTSEDSAVYYCARSNYAYDLLMDYWGQGTSVTVSS VL: DVVMTQTPLTLSVTIGQPASISCKSSQSLLDSDGKTYLNCFLQRPGQSPNRLIYLVSRLDSGVPDRFTGSGSGTDFTLKISRVEAEDLGVYYCCQVTQWTFGGGTKLEIK | binds
